According to patent publication US20090311283A1:

Key:
[1] = target: T1, HLA-DR1 (DRB1*0101) (human); test: competition with 125I probe peptide for purified HLA-DR, gel filtration
T1 chain 1: not shown
T1 chain 2: not shown

[2] = target: HLA-DR9 (DRB1*0901) (human); test: as above
[3] = target: T2, HLA-DR8w2 (DRB1*0802) (human); test: as above
T2 chain 1: not shown
T2 chain 2: not shown

[4] = target: T3, HLA-DR4w4 (DRB1*0401) (human); test: as above
T3 chain 1: not shown
T3 chain 2: not shown

[5] = target: T4, HLA-DRw53 (DRB4*0101) (human); test: as above
T4 chain 1: not shown
T4 chain 2: not shown

[6] = target: T5, HLA-DR7 (DRB1*0701) (human); test: as above
T5 chain 1: not shown
T5 chain 2: not shown

[7] = target: HLA-DR5w12 (DRB1*1201) (human); test: as above
[8] = target: T6, HLA-DR5w11 (DRB1*1101) (human); test: as above
T6 chain 1: not shown
T6 chain 2: not shown

[9] = target: T7, HLA-DR6w19 (DRB1*1302) (human); test: as above
T7 chain 1: not shown
T7 chain 2: not shown

[10] = target: HLA-A*0203 (Human); details: remark: other sources report otherwise
[11] = target: HLA-A*6802 (Human); details: remark: other sources report otherwise
[12] = target: HLA-A*0201 (Human); details: remark: other sources report otherwise
[13] = target: HLA-A*6802 (Human); details: remark: other sources report otherwise; remark: listed apart in the source
[14] = target: HLA-A*03 (human); test: competitive inhibition of 125I-labelled probe peptide binding to purified HLA, gel filtration; details: remark: other sources report otherwise
[15] = target: T1, HLA-DR1 (DRB1*0101) (human); test: inhibition of 125I probe peptide binding to purified HLA-DR, gel filtration; details: remark: other sources report otherwise
[16] = target: T6, HLA-DR5w11 (DRB1*1101) (human); test: as above; details: remark: other sources report otherwise
[17] = target: T8, HLA-DRB1*0101 (human)
T8 chain 1: not shown
T8 chain 2: not shown

[18] = target: T9, HLA-DRB4*0101 (human)
T9 chain 1: not shown
T9 chain 2: not shown

[19] = target: HLA-B*0702 (human); test: competition vs 125I probe peptide, purified HLA, gel filtration; details: remark: other sources report otherwise
[20] = target: HLA-B*5401 (human); test: as above; details: remark: other sources report otherwise
[21] = target: HLA-B*3501 (human); test: as above; details: remark: other sources report otherwise
[22] = target: HLA-A*6801 (human); test: inhibition of 125I-labelled probe peptide binding to purified HLA, gel filtration; details: remark: other sources report otherwise

Question: How did the relative binding (IC50 of standard peptide / IC50 of test peptide) [1] turn out when FVQWFVGLSPTVWLS (modifications not checked) [HBV ENV 342 peptide …] was run?
Answer: Its relative binding (IC50 of standard peptide / IC50 of test peptide) is 0.47.

Question: What about the relative binding (IC50 of standard peptide / IC50 of test peptide) [2] of the same binder?
Answer: Its relative binding (IC50 of standard peptide / IC50 of test peptide) is 0.041.

Question: What about the relative binding (IC50 of standard peptide / IC50 of test peptide) [3] of the same binder?
Answer: Its relative binding (IC50 of standard peptide / IC50 of test peptide) is 0.018.

Question: And the relative binding (IC50 of standard peptide / IC50 of test peptide) [4]?
Answer: The relative binding (IC50 of standard peptide / IC50 of test peptide) was 0.013.

Question: What about the relative binding (IC50 of standard peptide / IC50 of test peptide) [5] of the same binder?
Answer: Its relative binding (IC50 of standard peptide / IC50 of test peptide) is 0.0044.

Question: What about the relative binding (IC50 of standard peptide / IC50 of test peptide) [6] of the same binder?
Answer: Its relative binding (IC50 of standard peptide / IC50 of test peptide) is 0.069.

Question: What about the relative binding (IC50 of standard peptide / IC50 of test peptide) [7] of the same binder?
Answer: The relative binding (IC50 of standard peptide / IC50 of test peptide) was 0.0021.

Question: And the relative binding (IC50 of standard peptide / IC50 of test peptide) [8]?
Answer: Its relative binding (IC50 of standard peptide / IC50 of test peptide) is 0.0072.

Question: And the relative binding (IC50 of standard peptide / IC50 of test peptide) [9]?
Answer: The relative binding (IC50 of standard peptide / IC50 of test peptide) was 0.019.

Question: Which binding affinity ratio (IC50 of standard peptide / IC50 of test peptide) [10] does the source give for FTFSPTYKA (modifications not checked) [HBV POL 656 …] here?
Answer: Its binding affinity ratio (IC50 of standard peptide / IC50 of test peptide) is 0.0031.

Question: What about the binding affinity ratio (IC50 of standard peptide / IC50 of test peptide) [11] of the same binder?
Answer: Its binding affinity ratio (IC50 of standard peptide / IC50 of test peptide) is 7.3.

Question: And the binding affinity ratio (IC50 of standard peptide / IC50 of test peptide) [12]?
Answer: Its binding affinity ratio (IC50 of standard peptide / IC50 of test peptide) is 0.0056.

Question: With ILSTLPETTV (modifications not checked) [peptide 1069.14] as the binder, how does the IC50 [13] read?
Answer: Its IC50 is 5.97 µM.

Question: For ILRGTSFVY (modifications not checked) [HBV POL 771 peptide 1.0205 (…)], which IC50 [14] is on record?
Answer: Its IC50 is 0.25 µM.

Question: Which results are given for CSVVRRAFPHCLAFS (modifications not checked) [HBV POL peptide …]?
Answer: binding affinity ratio (relative to standard peptide) [15]: 0.1; binding affinity ratio (relative to standard peptide) [16]: 0.0008

Question: With AEDLNLGNLNVSIPW (modifications not checked) [… (HBV POL 38, 15-mer)] as the binder, how does the binding affinity ratio (IC50 of standard peptide / IC50 of test peptide) [17] read?
Answer: Its binding affinity ratio (IC50 of standard peptide / IC50 of test peptide) is 0.0001.

Question: What about the binding affinity ratio (IC50 of standard peptide / IC50 of test peptide) [18] of the same binder?
Answer: The binding affinity ratio (IC50 of standard peptide / IC50 of test peptide) was 0.017.

Question: How did the IC50 [19] turn out when VPSALNPA (modifications not checked) [Peptide 19.0016 (HBV POL 769, VPSALNPA)] was run?
Answer: Its IC50 is 3 µM.

Question: What about the IC50 [20] of the same binder?
Answer: Its IC50 is 0.01 µM.

Question: What does the source list for FPDHQLDPA (modifications not checked) [Peptide 16.0006 (HBV ENV 25, …)]?
Answer: IC50 [20]: 0.012 µM; IC50 [21]: 8 µM

Question: VSIPWTHK (modifications not checked) [HBV POL 50 peptide 26.0024 (VSIPWTHK)] was tested. Which IC50 [22] did it give?
Answer: The IC50 was 20 µM.
